From article PMC9705314, “Characterization of a new potent and long-lasting single chain peptide agonist of RXFP1 in cells and in vivo translational models” (Scientific Reports, 2022) come the findings set out here.

For test [1], the target named is rat RXFP1 (rat) (UniProt Q6R6I6).
Test [2] addresses human RXFP1 (human) (UniProt Q9HBX9).

Sequence of human RXFP1 (human) (Q9HBX9 whole entry): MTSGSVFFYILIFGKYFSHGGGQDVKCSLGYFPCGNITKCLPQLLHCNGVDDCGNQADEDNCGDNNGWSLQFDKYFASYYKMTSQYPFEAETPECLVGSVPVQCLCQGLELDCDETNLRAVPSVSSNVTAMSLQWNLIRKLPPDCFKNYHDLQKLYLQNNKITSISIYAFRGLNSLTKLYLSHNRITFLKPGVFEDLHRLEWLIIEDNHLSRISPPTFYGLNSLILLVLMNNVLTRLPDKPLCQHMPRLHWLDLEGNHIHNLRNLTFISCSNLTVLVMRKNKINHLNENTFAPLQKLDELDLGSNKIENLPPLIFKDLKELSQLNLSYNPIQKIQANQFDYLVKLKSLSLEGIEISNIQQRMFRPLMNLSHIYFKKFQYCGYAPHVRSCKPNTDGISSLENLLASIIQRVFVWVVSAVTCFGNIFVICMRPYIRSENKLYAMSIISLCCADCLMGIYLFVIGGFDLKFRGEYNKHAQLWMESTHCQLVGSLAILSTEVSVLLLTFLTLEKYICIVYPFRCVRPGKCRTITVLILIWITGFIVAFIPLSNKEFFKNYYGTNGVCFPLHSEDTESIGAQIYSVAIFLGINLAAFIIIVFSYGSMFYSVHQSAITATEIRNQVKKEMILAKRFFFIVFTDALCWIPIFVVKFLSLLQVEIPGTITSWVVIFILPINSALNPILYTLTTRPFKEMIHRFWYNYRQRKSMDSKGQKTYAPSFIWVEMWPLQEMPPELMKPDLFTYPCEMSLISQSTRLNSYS
Sequence of rat RXFP1 (rat) (Q6R6I6 whole entry): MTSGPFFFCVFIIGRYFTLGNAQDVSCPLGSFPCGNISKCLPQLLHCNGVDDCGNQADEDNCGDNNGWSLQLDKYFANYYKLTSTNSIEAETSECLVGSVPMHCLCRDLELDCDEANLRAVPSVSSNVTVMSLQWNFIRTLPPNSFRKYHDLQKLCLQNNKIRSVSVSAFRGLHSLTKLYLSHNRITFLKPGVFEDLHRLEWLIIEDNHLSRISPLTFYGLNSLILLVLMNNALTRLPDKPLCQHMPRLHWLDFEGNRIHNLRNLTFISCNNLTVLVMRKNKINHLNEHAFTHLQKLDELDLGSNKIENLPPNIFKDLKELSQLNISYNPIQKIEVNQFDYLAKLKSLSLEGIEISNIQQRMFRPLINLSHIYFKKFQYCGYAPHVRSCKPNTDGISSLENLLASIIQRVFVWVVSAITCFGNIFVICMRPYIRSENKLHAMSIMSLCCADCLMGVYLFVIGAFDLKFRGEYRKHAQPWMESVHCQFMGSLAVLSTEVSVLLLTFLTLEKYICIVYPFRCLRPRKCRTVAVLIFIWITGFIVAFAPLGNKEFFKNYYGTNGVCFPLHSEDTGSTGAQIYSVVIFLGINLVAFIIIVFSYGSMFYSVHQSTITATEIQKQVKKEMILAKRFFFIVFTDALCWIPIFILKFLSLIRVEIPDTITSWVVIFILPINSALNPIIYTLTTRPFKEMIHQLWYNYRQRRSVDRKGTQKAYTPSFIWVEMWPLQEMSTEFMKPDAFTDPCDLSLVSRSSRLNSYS

For the substance “Human recombinant relaxin (B-29/A-24) (ligand)”, in test [1], the cAMP (HTRF) in HEK ratRXFP1 cells, EC50 turned out to be 1.4 nM and the cAMP (HTRF) in HEK ratRXFP1 cells, Emax (% of the 100 nM relaxin response) was found to be 95.6%. In test [2], this substance had a cAMP (HTRF) in EA.hy926 hRXFP1 cells, EC50 of 0.06 nM; a cAMP (HTRF) in EA.hy926 hRXFP1 cells, Emax (% of the 100 nM relaxin response) of 100%; a cAMP (HTRF) in OVCAR5 cells with endogenous human RXFP1, EC50 of 1.8 nM; a cAMP (HTRF) in OVCAR5 cells with endogenous human RXFP1, Emax (% of the 100 nM relaxin response) of 96.2%.
